Results on one molecule are retold here after article PMC6420652, “Developing a novel FRET assay, targeting the binding between Antizyme-AZIN” (Scientific Reports, 2019).

Common to all, as to experiment: FRET or BRET; Clover fusion protein constant at 50 nM, mRuby2 fusion of antizyme titrated; TBS pH 7.4 + 0.15% Tween-20, 1 hour at room temperature; plate reader, fit of donor quenching
Holding throughout (settings): both partners purified

In assay [1] the target is T1, Clover-AZIN (antizyme inhibitor with an N-terminal Clover tag) (human, UniProt O14977 1-448).
T1 construct: The vector has a TEV protease site after the His tag; also called hAZIN1; source: bacterial expression vector (pBAD), purified recombinant protein; not shown: Clover, N-terminal, kept
T1 sequence (looked up): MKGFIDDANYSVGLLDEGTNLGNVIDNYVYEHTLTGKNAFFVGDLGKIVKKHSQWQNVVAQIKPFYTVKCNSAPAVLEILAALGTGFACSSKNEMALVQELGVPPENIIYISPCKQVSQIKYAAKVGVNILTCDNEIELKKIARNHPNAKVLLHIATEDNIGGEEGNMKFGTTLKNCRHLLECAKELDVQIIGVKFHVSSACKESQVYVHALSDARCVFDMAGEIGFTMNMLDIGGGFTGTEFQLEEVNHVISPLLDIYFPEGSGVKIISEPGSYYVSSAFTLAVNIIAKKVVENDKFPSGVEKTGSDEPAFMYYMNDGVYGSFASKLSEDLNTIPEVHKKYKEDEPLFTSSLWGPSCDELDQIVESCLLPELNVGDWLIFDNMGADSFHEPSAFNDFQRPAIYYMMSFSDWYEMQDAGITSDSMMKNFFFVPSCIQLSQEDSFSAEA

Assay [2] concerns the target T2, ODC-Y331S (Clover fusion protein) (human, UniProt P11926 1-461, Y331S).
T2 construct: human ornithine decarboxylase (hODC1) with Y331S; As m5 with the point mutation; source: bacterial expression vector (pBAD), purified recombinant protein
T2 sequence (looked up): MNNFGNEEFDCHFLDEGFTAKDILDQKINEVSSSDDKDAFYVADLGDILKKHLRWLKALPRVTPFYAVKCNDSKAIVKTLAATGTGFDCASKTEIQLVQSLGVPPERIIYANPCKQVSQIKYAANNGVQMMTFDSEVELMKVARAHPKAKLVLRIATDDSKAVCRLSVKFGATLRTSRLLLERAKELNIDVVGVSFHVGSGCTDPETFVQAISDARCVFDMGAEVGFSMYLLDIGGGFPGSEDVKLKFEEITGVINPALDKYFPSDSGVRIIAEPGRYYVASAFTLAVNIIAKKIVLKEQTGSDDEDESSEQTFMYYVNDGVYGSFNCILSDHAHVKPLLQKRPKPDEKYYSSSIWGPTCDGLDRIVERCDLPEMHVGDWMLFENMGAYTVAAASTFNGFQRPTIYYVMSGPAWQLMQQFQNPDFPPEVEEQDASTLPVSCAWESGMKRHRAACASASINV

Assay [3] has as its target T3, ODC-Clover fusion protein (ornithine decarboxylase), wild type (human, UniProt P11926 1-461).
T3 construct: human ornithine decarboxylase (hODC1); The legend says 'ODC-Clover fusion proteins'; the methods speak of N-terminal fluorescent fusion proteins of hODC1, so Clover is probably N-terminal; also called hODC1; source: bacterial expression vector (pBAD), purified recombinant protein
T3 sequence (looked up): T2 sequence (looked up) with S331Y

Assay [4] addresses T4, ODC-N327A (Clover fusion protein) (human, UniProt P11926 1-461, N327A).
T4 construct: human ornithine decarboxylase (hODC1) with N327A; As m5 with the point mutation; source: bacterial expression vector (pBAD), purified recombinant protein
T4 sequence (looked up): T2 sequence (looked up) with N327A, S331Y

Changes are numbered by the printed parent chain.

B1: antizyme-mRuby2 (antizyme with a C-terminal mRuby2 tag) (natural protein)
chain: not shown
notes: human antizyme 1 (OAZ1), codon-optimized synthetic gene; An HRV 3C protease site lies between antizyme and mRuby2 (used for the cleavage control); also called AZ-mRuby2; AZ; source: bacterial expression vector (pBAD), gene codon optimized for E. coli, purified recombinant protein; not shown: mRuby2, C-terminal, kept
For B1, the Kd in assay [1] came to 22 nM; in assay [2] it was 277 nM; in assay [3], 508 nM; in assay [4], 192 nM.

What is called Kd is the equilibrium constant for the complex coming apart.
